Experimental data published in patent US20220211812A1 (Bristol-Myers Squibb, published 2022).

T1: human RXFP1 receptor (human, UniProt Q9HBX9 1-757)
T1 sequence (looked up): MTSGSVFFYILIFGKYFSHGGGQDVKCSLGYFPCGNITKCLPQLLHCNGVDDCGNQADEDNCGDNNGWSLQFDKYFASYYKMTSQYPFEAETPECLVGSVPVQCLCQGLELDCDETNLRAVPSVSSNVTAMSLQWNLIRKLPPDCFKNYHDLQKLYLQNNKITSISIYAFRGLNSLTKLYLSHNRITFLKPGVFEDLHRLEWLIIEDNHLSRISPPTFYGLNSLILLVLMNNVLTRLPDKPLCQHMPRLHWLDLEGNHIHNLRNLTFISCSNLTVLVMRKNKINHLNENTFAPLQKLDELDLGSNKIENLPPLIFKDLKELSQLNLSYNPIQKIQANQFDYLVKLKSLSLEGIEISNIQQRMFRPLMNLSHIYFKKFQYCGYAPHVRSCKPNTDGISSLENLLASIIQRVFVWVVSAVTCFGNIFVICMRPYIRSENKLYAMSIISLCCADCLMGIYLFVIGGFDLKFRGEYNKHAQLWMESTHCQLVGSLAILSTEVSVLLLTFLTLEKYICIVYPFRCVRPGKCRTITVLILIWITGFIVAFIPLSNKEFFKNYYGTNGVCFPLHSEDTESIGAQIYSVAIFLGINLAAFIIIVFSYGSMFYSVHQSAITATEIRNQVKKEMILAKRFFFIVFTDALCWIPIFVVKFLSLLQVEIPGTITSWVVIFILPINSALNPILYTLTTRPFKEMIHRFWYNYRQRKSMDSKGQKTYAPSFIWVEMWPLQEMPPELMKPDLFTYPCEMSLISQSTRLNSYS

B1: AQ1-EEEGGG-dGlu^γ-C13-COOH (ligand)
chain 1: XLYSALANKCCHVGCTKRSLARFC
chain 2: ASWMEEVIKLCGRELVRAQIAICGMSTWS
peptide: EEEGGGE
modifications: not fully specified; dGlu^γ = D-glutamic acid (gamma), linked to fatty acid -C13-COOH; oxime-linked to pAcF of the A chain; pAcF (para-acetyl-L-phenylalanine) at position 1, oxime-linked to PK enhancer EEEGGG-dGlu^γ-C13-COOH
B2: AQ1-EEEGGG-Glu^γ-C13-COOH (ligand)
chain 1: XLYSALANKCCHVGCTKRSLARFC
chain 2: ASWMEEVIKLCGRELVRAQIAICGMSTWS
peptide: EEEGGGE
modifications: not fully specified; Glu^γ bonded by amide to fatty acid -C13-COOH; oxime-linked to pAcF of the A chain; pAcF (para-acetyl-L-phenylalanine) at position 1, oxime-linked to PK enhancer EEEGGG-Glu^γ-C13-COOH
B3: AQ1-EEEEGEEEEGEEEEGEEEE-Gluγ-C14-CH3 (ligand)
chain 1: XLYSALANKCCHVGCTKRSLARFC
chain 2: ASWMEEVIKLCGRELVRAQIAICGMSTWS
peptide: EEEEGEEEEGEEEEGEEEEE
modifications: not fully specified; Glu^γ bonded by amide to fatty acid -C14-CH3; oxime-linked to pAcF of the A chain; pAcF (para-acetyl-L-phenylalanine) at position 1, oxime-linked to PK enhancer EEEEGEEEEGEEEEGEEEE-Gluγ-C14-CH3
B4: AQ1-Compound 39 (ligand)
chain 1: XLYSALANKCCHVGCTKRSLARFC
chain 2: ASWMEEVIKLCGRELVRAQIAICGMSTWS
modifications: pAcF (para-acetyl-L-phenylalanine) at position 1, oxime-linked to Compound 39 ((S)-1-(aminooxy)-33-carboxy-4,7,17,27,35-pentaoxo-11,14,21,24-tetraoxa-3,8,18,28,34-pentaazadopentacontan-52-oic acid)
B5: AQ1-KKKSGGSGG-Glu^γ-C13-COOH (ligand)
chain 1: XLYSALANKCCHVGCTKRSLARFC
chain 2: ASWMEEVIKLCGRELVRAQIAICGMSTWS
peptide: KKKSGGSGGE
modifications: not fully specified; Glu^γ bonded by amide to fatty acid -C13-COOH; oxime-linked to pAcF of the A chain; pAcF (para-acetyl-L-phenylalanine) at position 1, oxime-linked to PK enhancer KKKSGGSGG-Glu^γ-C13-COOH
B6: AQ1-EEEGGG-Glu^γ-C15-COOH (ligand)
chain 1: XLYSALANKCCHVGCTKRSLARFC
chain 2: ASWMEEVIKLCGRELVRAQIAICGMSTWS
peptide: EEEGGGE
modifications: not fully specified; Glu^γ bonded by amide to fatty acid -C15-COOH; oxime-linked to pAcF of the A chain; pAcF (para-acetyl-L-phenylalanine) at position 1, oxime-linked to PK enhancer EEEGGG-Glu^γ-C15-COOH
B7: AQ1-Sar-Sar-Sar-Sar-Ser-Glu^γ-C13-COOH (ligand)
chain 1: XLYSALANKCCHVGCTKRSLARFC
chain 2: ASWMEEVIKLCGRELVRAQIAICGMSTWS
peptide: XXXXSE
modifications: not fully specified; Sar = sarcosine (N-methylglycine); Glu^γ bonded by amide to fatty acid -C13-COOH; oxime-linked to pAcF of the A chain; pAcF (para-acetyl-L-phenylalanine) at position 1, oxime-linked to PK enhancer Sar-Sar-Sar-Sar-Ser-Glu^γ-C13-COOH
B8: AQ1-EGGGGSK-Glu^γ-C13-COOH (ligand)
chain 1: XLYSALANKCCHVGCTKRSLARFC
chain 2: ASWMEEVIKLCGRELVRAQIAICGMSTWS
peptide: EGGGGSKE
modifications: not fully specified; Glu^γ bonded by amide to fatty acid -C13-COOH; oxime-linked to pAcF of the A chain; pAcF (para-acetyl-L-phenylalanine) at position 1, oxime-linked to PK enhancer EGGGGSK-Glu^γ-C13-COOH
B9: AQ1-KKSGGSGGEE-Glu^γ-C13-COOH (ligand)
chain 1: XLYSALANKCCHVGCTKRSLARFC
chain 2: ASWMEEVIKLCGRELVRAQIAICGMSTWS
peptide: KKSGGSGGEEE
modifications: not fully specified; Glu^γ bonded by amide to fatty acid -C13-COOH; oxime-linked to pAcF of the A chain; pAcF (para-acetyl-L-phenylalanine) at position 1, oxime-linked to PK enhancer KKSGGSGGEE-Glu^γ-C13-COOH
B10: AQ1-GGGEEE-Glu^γ-C13-COOH (ligand)
chain 1: XLYSALANKCCHVGCTKRSLARFC
chain 2: ASWMEEVIKLCGRELVRAQIAICGMSTWS
peptide: GGGEEEE
modifications: not fully specified; Glu^γ bonded by amide to fatty acid -C13-COOH; oxime-linked to pAcF of the A chain; pAcF (para-acetyl-L-phenylalanine) at position 1, oxime-linked to PK enhancer GGGEEE-Glu^γ-C13-COOH
B11: AQ1-Sar-Sar-Sar-Glu-Glu-Glu^γ-C13-COOH (ligand)
chain 1: XLYSALANKCCHVGCTKRSLARFC
chain 2: ASWMEEVIKLCGRELVRAQIAICGMSTWS
peptide: XXXEEE
modifications: not fully specified; Sar = sarcosine (N-methylglycine); Glu^γ bonded by amide to fatty acid -C13-COOH; oxime-linked to pAcF of the A chain; pAcF (para-acetyl-L-phenylalanine) at position 1, oxime-linked to PK enhancer Sar-Sar-Sar-Glu-Glu-Glu^γ-C13-COOH
B12: AQ1-EEEEPEEEEPEEEEPEEGGG-C14-CH3 (ligand)
chain 1: XLYSALANKCCHVGCTKRSLARFC
chain 2: ASWMEEVIKLCGRELVRAQIAICGMSTWS
peptide: EEEEPEEEEPEEEEPEEGGG
modifications: linked to fatty acid -C14-CH3; oxime-linked to pAcF of the A chain; pAcF (para-acetyl-L-phenylalanine) at position 1, oxime-linked to PK enhancer EEEEPEEEEPEEEEPEEGGG-C14-CH3
B13: AQ1-Sar-Sar-Sar-Sar-Ser-Sar-Sar-Sar-Sar-Glu^γ-C13-COOH (ligand)
chain 1: XLYSALANKCCHVGCTKRSLARFC
chain 2: ASWMEEVIKLCGRELVRAQIAICGMSTWS
peptide: XXXXSXXXXE
modifications: not fully specified; Sar = sarcosine (N-methylglycine); Glu^γ bonded by amide to fatty acid -C13-COOH; oxime-linked to pAcF of the A chain; pAcF (para-acetyl-L-phenylalanine) at position 1, oxime-linked to PK enhancer Sar-Sar-Sar-Sar-Ser-Sar-Sar-Sar-Sar-Glu^γ-C13-COOH
B14: AQ1-KKSGGSGG-Glu^γ-C13-COOH (ligand)
chain 1: XLYSALANKCCHVGCTKRSLARFC
chain 2: ASWMEEVIKLCGRELVRAQIAICGMSTWS
peptide: KKSGGSGGE
modifications: not fully specified; Glu^γ bonded by amide to fatty acid -C13-COOH; oxime-linked to pAcF of the A chain; pAcF (para-acetyl-L-phenylalanine) at position 1, oxime-linked to PK enhancer KKSGGSGG-Glu^γ-C13-COOH
B15: AQ1-dKdKdKdKdKdK-Glu^γ-C13-COOH (ligand)
chain 1: XLYSALANKCCHVGCTKRSLARFC
chain 2: ASWMEEVIKLCGRELVRAQIAICGMSTWS
peptide: KKKKKKE
modifications: not fully specified; dK = D-lysine (six); Glu^γ bonded by amide to fatty acid -C13-COOH; oxime-linked to pAcF of the A chain; pAcF (para-acetyl-L-phenylalanine) at position 1, oxime-linked to PK enhancer dKdKdKdKdKdK-Glu^γ-C13-COOH
B16: AQ1-RGGEEKKKEKEK-Glu^γ-C13-COOH (ligand)
chain 1: XLYSALANKCCHVGCTKRSLARFC
chain 2: ASWMEEVIKLCGRELVRAQIAICGMSTWS
peptide: RGGEEKKKEKEKE
modifications: not fully specified; Glu^γ bonded by amide to fatty acid -C13-COOH; oxime-linked to pAcF of the A chain; pAcF (para-acetyl-L-phenylalanine) at position 1, oxime-linked to PK enhancer RGGEEKKKEKEK-Glu^γ-C13-COOH
B17: AQ1-KKSAGSAG-Glu^γ-C13-COOH (ligand)
chain 1: XLYSALANKCCHVGCTKRSLARFC
chain 2: ASWMEEVIKLCGRELVRAQIAICGMSTWS
peptide: KKSAGSAGE
modifications: not fully specified; Glu^γ bonded by amide to fatty acid -C13-COOH; oxime-linked to pAcF of the A chain; pAcF (para-acetyl-L-phenylalanine) at position 1, oxime-linked to PK enhancer KKSAGSAG-Glu^γ-C13-COOH
B18: AQ1-GSGSGSGS-Glu^γ-C15-COOH (ligand)
chain 1: XLYSALANKCCHVGCTKRSLARFC
chain 2: ASWMEEVIKLCGRELVRAQIAICGMSTWS
peptide: GSGSGSGSE
modifications: not fully specified; Glu^γ bonded by amide to fatty acid -C15-COOH; oxime-linked to pAcF of the A chain; pAcF (para-acetyl-L-phenylalanine) at position 1, oxime-linked to PK enhancer GSGSGSGS-Glu^γ-C15-COOH
B19: AQ1-GGGKKK-Glu^γ-C13-COOH (ligand)
chain 1: XLYSALANKCCHVGCTKRSLARFC
chain 2: ASWMEEVIKLCGRELVRAQIAICGMSTWS
peptide: GGGKKKE
modifications: not fully specified; Glu^γ bonded by amide to fatty acid -C13-COOH; oxime-linked to pAcF of the A chain; pAcF (para-acetyl-L-phenylalanine) at position 1, oxime-linked to PK enhancer GGGKKK-Glu^γ-C13-COOH
B20: AQ1-GGGGS-Glu^γ-C15-COOH (ligand)
chain 1: XLYSALANKCCHVGCTKRSLARFC
chain 2: ASWMEEVIKLCGRELVRAQIAICGMSTWS
peptide: GGGGSE
modifications: not fully specified; Glu^γ bonded by amide to fatty acid -C15-COOH; oxime-linked to pAcF of the A chain; pAcF (para-acetyl-L-phenylalanine) at position 1, oxime-linked to PK enhancer GGGGS-Glu^γ-C15-COOH

Biological target: T1, human RXFP1 receptor
Experiment: cell-based or functional assay

| Binder | hRXFP1/CHO-K1 cAMP EC50 (nM, avg) |
| --- | --- |
| B1 | 1.91 nM |
| B2 | 0.31 nM |
| B3 | 0.67 nM |
| B4 | 2.23 nM |
| B5 | 0.14 nM |
| B6 | 5.26 nM |
| B7 | 0.32 nM |
| B8 | 0.31 nM |
| B9 | 0.16 nM |
| B10 | 0.22 nM |
| B11 | 0.59 nM |
| B12 | 0.16 nM |
| B13 | 0.39 nM |
| B14 | 0.34 nM |
| B15 | 0.1 nM |
| B16 | 0.29 nM |
| B17 | 0.27 nM |
| B18 | 2.79 nM |
| B19 | 0.19 nM |
| B20 | 1.55 nM |
